In PMC3984256 (2014):

Legend:
[1] = target: T1, Recombinant PCNA (proliferating cell nuclear antigen) (human, UniProt P12004 1-261); assay: SPR; 0 nM caPep
[2] = target: T1, Recombinant PCNA (proliferating cell …); assay: SPR; 1000 nM caPep
[3] = target: T1, Recombinant PCNA (proliferating cell …); assay: SPR; 500 nM caPep

T1 sequence (P12004 whole entry): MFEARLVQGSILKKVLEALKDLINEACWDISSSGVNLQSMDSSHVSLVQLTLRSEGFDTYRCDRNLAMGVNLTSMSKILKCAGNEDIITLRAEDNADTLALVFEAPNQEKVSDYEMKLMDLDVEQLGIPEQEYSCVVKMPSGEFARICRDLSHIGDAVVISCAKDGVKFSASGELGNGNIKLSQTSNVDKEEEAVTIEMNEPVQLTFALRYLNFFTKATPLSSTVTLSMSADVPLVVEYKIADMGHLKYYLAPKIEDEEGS

Kd [1]: 0.0846 µM
Kd [2]: 250 µM
Kd [3]: 3.33 µM
Binder: SKSRQGSTQGRLDDFF [FEN1 peptide containing the PIP-box]
